Where two headings read alike, the source gives them in different places.
How the values were obtained:
SEC [1] = biological target: the molecule itself; experiment: SEC
SEC [2] = biological target: the molecule itself; experiment: SEC; remark: listed apart in the source

Row | Protein | stoichiometry N (SEC [1]) | stoichiometry N (SEC [2])
1 | NEM-modified PITPβ (phosphatidylinositol transfer protein beta) in cytosol of NEM-treated HL60 cells (natural protein, human (endogenous in HL60), UniProt P48739 1-271, looked up, C95 alkylated by N-ethylmaleimide (NEM)) MVLIKEFRVVLPCSVQEYQVGQLYSVAEASKNETGGGEGIEVLKNEPYEKDGEKGQYTHKIYHLKSKVPAFVRMIAPEGSLVFHEKAWNAYPYCRTIVTNEYMKDDFFIKIETWHKPDLGTLENVHGLDPNTWKTVEIVHIDIADRSQVEPADYKADEDPALFQSVKTKRGPLGPNWKKELANSPDCPQMCAYKLVTIKFKWWGLQSKVENFIQKQEKRIFTNFHRQLFCWIDKWIDLTMEDIRRMEDETQKELETMRKRGSVRGTSAADV | 2 | –
2 | NEM-modified PITPβ (phosphatidylinositol transfer protein beta) in cytosol of NEM-treated PC12 cells (natural protein, rat (endogenous in PC12), UniProt P53812 1-271, looked up, C95 alkylated by N-ethylmaleimide (NEM)) MVLIKEFRVVLPCSVQEYQVGQLYSVAEASKNETGGGEGIEVLKNEPYENDGEKGQYTHKIYHLKSKVPAFVRMIAPEGSLVFHEKAWNAYPYCRTIVTNEYMKDDFFIKIETWHKPDLGTLENVHGLDPNTWKTVEIVHIDIADRSQVEPADYKADEDPALFQSVKTKRGPLGPNWKKELANTPDCPKMCAYKLVTIKFKWWGLQSKVENFIQKQEKRIFTNLHRQLFCWIDKWIDLTMEDIRRMEDETQKELETMRKKGSVRGTSAADA | – | 2

— publication PMC2635478 (Traffic (Copenhagen, Denmark), 2008)
